In experiment [1] the target is T1, Recombinant human DNA polymerase δ holoenzyme (Pol δ4), heterotetramer of p125, p50, p68 and p12 (human, UniProt P28340 1-1107; P49005 1-469; Q15054 1-466; Q9HCU8 1-107).
T1 construct: p125, catalytic subunit of human Pol δ; p50 subunit of human Pol δ; p68 subunit of human Pol δ; p12 subunit of human Pol δ; also called Pol δ heterotetramer; source: insect cells, purified to near homogeneity; copies: + + +
Nature of the experiment: pull-down; GST fusion protein incubated with the test protein in 50 mM Tris-HCl pH 7.8, 1 mM EDTA, 150 mM NaCl, 0.1% NP-40, 0.2 mM PMSF, 1 h at 4°C; captured on glutathione beads, washed 8 times; western blot of the test protein. The note with it: both partners purified. A general note: In western blotting, separated proteins are transferred to a membrane and probed.

Experiment [2] has as its target T2, His-tagged p50 subunit of Pol δ (human, UniProt P49005 1-469).
T2 construct: p50 subunit of human DNA polymerase δ; Expressed in the PET33b vector; also called his-p50; source: E. coli BL21DE3 (pLysS), purified (Ni-NTA agarose)
The description is as above. The settings on record: both partners purified.

The next experiment concerns the target T3, Human PCNA, recombinant (human, UniProt P12004 1-261).
T3 construct: PCNA, human; source: E. coli, purified
The experiment is described as above. The settings on record: both partners purified.

For the next experiment, the target named is T4, His-tagged PDIP46 (human, UniProt Q9BY77 1-421).
T4 construct: PDIP46 (SKAR, POLDIP3), human; Expressed in the pTacTac vector with eight histidine residues added at its N-terminus; also called his-PDIP46; source: E. coli BL21DE3 (pLysS), purified (Ni-NTA agarose); not shown: His8, N-terminal, kept
T4 sequence (looked up): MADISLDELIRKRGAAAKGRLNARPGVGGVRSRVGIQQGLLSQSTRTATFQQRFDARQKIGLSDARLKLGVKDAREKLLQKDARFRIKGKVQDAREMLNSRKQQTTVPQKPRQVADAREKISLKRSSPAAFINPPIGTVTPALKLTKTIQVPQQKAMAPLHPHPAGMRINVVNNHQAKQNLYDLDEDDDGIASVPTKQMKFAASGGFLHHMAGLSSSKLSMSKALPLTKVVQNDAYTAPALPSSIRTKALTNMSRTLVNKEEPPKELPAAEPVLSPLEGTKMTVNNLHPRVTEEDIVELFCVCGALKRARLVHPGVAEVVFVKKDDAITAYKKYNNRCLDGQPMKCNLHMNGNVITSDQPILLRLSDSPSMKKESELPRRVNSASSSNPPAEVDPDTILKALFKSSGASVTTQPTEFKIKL
The description is as above. The settings on record: both partners purified.

The target in experiment [3] is DNA polymerase delta (Pol δ4) (Homo sapiens, UniProt P28340). Nature of the experiment: polymerase activity stimulation assay.
DNA polymerase delta (Pol δ4), sequence (P28340 whole entry, stated change not applied, chain 1 of 4): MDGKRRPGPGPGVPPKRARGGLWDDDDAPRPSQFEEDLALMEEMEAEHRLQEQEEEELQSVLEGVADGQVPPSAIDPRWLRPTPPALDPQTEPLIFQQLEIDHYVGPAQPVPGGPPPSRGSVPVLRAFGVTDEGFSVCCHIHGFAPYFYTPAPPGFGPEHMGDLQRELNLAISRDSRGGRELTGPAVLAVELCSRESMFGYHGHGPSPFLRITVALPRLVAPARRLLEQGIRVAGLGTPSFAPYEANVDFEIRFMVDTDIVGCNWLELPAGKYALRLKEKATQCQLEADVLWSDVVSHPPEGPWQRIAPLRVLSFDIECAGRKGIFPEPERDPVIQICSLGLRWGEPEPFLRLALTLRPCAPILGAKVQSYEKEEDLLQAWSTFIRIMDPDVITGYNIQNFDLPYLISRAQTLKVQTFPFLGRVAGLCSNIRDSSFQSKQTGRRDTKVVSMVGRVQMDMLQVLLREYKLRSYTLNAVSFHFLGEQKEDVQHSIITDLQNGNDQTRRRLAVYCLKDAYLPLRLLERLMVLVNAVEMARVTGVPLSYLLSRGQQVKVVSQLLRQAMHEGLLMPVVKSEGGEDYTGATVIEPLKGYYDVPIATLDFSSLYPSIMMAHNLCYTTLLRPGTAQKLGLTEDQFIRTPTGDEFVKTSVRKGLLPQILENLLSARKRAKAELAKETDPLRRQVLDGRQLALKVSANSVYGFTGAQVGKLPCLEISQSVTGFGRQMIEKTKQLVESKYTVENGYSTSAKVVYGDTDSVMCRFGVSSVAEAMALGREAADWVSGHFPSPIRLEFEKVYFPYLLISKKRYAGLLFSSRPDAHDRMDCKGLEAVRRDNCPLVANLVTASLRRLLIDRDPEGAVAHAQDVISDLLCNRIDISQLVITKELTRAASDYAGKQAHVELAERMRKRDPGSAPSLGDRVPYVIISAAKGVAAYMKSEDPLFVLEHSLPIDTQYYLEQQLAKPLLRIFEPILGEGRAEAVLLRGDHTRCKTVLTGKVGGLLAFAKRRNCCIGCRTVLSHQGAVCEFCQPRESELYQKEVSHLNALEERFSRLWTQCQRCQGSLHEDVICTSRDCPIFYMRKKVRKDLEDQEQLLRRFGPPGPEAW
DNA polymerase delta (Pol δ4), sequence (P49005 whole entry, stated change not applied, chain 2 of 4, further chain): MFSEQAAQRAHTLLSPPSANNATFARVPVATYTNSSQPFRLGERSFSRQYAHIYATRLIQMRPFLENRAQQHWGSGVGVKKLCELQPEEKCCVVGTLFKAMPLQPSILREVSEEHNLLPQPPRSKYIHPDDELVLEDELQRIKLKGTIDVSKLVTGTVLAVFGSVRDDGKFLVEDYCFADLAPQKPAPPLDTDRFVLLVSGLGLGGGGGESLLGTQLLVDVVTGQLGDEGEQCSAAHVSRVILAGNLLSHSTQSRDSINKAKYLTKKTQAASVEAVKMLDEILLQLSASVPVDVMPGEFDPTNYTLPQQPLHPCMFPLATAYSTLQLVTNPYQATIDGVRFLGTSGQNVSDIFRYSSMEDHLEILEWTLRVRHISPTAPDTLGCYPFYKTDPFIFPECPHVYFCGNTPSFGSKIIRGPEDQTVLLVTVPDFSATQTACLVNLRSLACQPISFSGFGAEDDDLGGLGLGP
DNA polymerase delta (Pol δ4), sequence (Q15054 2-466, stated change not applied, chain 3 of 4, further chain): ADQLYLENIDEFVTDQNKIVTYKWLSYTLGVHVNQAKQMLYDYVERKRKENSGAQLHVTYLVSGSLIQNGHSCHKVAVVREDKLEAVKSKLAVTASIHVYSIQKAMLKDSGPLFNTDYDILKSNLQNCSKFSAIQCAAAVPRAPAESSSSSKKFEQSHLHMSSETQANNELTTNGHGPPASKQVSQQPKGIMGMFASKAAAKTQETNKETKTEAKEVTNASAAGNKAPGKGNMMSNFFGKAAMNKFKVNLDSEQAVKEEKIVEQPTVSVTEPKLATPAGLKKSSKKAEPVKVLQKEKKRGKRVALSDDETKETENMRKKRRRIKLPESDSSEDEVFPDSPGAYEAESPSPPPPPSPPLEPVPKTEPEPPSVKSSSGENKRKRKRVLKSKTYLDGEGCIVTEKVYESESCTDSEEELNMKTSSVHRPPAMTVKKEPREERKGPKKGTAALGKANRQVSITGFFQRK
DNA polymerase delta (Pol δ4), sequence (Q9HCU8 whole entry, stated change not applied, chain 4 of 4, further chain): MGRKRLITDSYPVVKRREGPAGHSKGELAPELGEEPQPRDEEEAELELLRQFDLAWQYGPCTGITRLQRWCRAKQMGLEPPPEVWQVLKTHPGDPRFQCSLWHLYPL

For 4 molecules, binding result and Kd results are on record in paper PMC4868757, “PDIP46 (DNA polymerase δ interacting protein 46) is an activating factor for human DNA polymerase δ” (Oncotarget, 2016).

T3 sequence (P12004 whole entry): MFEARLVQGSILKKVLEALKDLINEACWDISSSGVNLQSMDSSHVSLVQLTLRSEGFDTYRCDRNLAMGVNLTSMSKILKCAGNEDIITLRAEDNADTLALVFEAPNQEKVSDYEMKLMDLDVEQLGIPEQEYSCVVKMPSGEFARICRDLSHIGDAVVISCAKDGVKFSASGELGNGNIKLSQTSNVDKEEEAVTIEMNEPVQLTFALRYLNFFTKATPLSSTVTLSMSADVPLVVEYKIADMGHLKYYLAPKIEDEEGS
T2 sequence (P49005 whole entry, stated change not applied): as the sequence (P49005 whole entry, stated change not applied, chain 2 of 4, further chain) above
T1 sequence (P28340 whole entry, stated change not applied, chain 1 of 4): as the sequence (P28340 whole entry, stated change not applied, chain 1 of 4) above
T1 sequence (P49005 whole entry, stated change not applied, chain 2 of 4): as the sequence (P49005 whole entry, stated change not applied, chain 2 of 4, further chain) above
T1 sequence (Q15054 whole entry, stated change not applied, chain 3 of 4): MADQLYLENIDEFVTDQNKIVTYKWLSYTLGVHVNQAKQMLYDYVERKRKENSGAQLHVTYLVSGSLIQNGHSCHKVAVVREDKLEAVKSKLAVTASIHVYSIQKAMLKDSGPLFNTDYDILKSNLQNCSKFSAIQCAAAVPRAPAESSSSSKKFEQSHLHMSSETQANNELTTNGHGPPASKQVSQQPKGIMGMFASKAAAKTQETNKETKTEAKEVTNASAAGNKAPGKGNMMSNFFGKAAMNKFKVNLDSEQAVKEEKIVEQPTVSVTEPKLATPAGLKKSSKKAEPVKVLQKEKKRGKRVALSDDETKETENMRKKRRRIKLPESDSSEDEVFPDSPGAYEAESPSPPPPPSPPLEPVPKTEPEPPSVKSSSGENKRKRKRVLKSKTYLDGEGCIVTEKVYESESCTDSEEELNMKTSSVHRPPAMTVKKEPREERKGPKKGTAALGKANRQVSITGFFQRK
T1 sequence (Q9HCU8 whole entry, stated change not applied, chain 4 of 4): as the sequence (Q9HCU8 whole entry, stated change not applied, chain 4 of 4, further chain) above

B1: GST-PDIP46 (DNA polymerase δ interacting protein 46), wild type, full length (natural protein, human, UniProt Q9BY77 1-421, looked up)
chain: MADISLDELIRKRGAAAKGRLNARPGVGGVRSRVGIQQGLLSQSTRTATFQQRFDARQKIGLSDARLKLGVKDAREKLLQKDARFRIKGKVQDAREMLNSRKQQTTVPQKPRQVADAREKISLKRSSPAAFINPPIGTVTPALKLTKTIQVPQQKAMAPLHPHPAGMRINVVNNHQAKQNLYDLDEDDDGIASVPTKQMKFAASGGFLHHMAGLSSSKLSMSKALPLTKVVQNDAYTAPALPSSIRTKALTNMSRTLVNKEEPPKELPAAEPVLSPLEGTKMTVNNLHPRVTEEDIVELFCVCGALKRARLVHPGVAEVVFVKKDDAITAYKKYNNRCLDGQPMKCNLHMNGNVITSDQPILLRLSDSPSMKKESELPRRVNSASSSNPPAEVDPDTILKALFKSSGASVTTQPTEFKIKL
notes: PDIP46 (SKAR, POLDIP3), human, full-length; Subcloned in pGEX-5X-3; The functional rows used untagged PDIP46 (his-Sumo fusion, tags removed by Sumo protease, Mono S), not this GST fusion; also called GST-p46; SKAR; source: E. coli BL21DE3 (pLysS), purified (glutathione beads)
On to B1, for which the binding result in experiment [1] and in experiment [2] was “binds” each time.

B2: GST-PDIP46 N-terminal fragment (residues 1-141) (domain or fragment, human, UniProt Q9BY77 1-141, looked up)
chain: MADISLDELIRKRGAAAKGRLNARPGVGGVRSRVGIQQGLLSQSTRTATFQQRFDARQKIGLSDARLKLGVKDAREKLLQKDARFRIKGKVQDAREMLNSRKQQTTVPQKPRQVADAREKISLKRSSPAAFINPPIGTVTP
notes: Subcloned in pGEX-5X-3; source: E. coli BL21DE3 (pLysS), purified (glutathione beads)
With B2, the binding result in the experiment with Human PCNA, recombinant is “binds”.

B3: GST-p50 deletion construct containing residues 252-400 of p50 (domain or fragment, human, UniProt P49005 252-400, looked up)
chain: TQSRDSINKAKYLTKKTQAASVEAVKMLDEILLQLSASVPVDVMPGEFDPTNYTLPQQPLHPCMFPLATAYSTLQLVTNPYQATIDGVRFLGTSGQNVSDIFRYSSMEDHLEILEWTLRVRHISPTAPDTLGCYPFYKTDPFIFPECPH
notes: as for B2
For the molecule B3, the binding result with His-tagged PDIP46 is “binds”.

B4: PDIP46 (protein)
chain: ADISLDELIRKRGAAAKGRLNARPGVGGVRSRVGIQQGLLSQSTRTATFQQRFDARQKIGLSDARLKLGVKDAREKLLQKDARFRIKGKVQDAREMLNSRKQQTTVPQKPRQVADAREKISLKRSSPAAFINPPIGTVTPALKLTKTIQVPQQKAMAPLHPHPAGMRINVVNNHQAKQNLYDLDEDDDGIASVPTKQMKFAASGGFLHHMAGLSSSKLSMSKALPLTKVVQNDAYTAPALPSSIRTKALTNMSRTLVNKEEPPKELPAAEPVLSPLEGTKMTVNNLHPRVTEEDIVELFCVCGALKRARLVHPGVAEVVFVKKDDAITAYKKYNNRCLDGQPMKCNLHMNGNVITSDQPILLRLSDSPSMKKESELPRRVNSASSSNPPAEVDPDTILKALFKSSGASVTTQPTEFKIKL
The term Kd denotes the constant that tells how readily two partners part at equilibrium. As for B4, the dissociation constant Kd in experiment [3] amounted to 34 nM.
